In publication PMC5714250:

T1: APUM23 85-655 (WT) (Arabidopsis thaliana, UniProt Q9C552 85-655)
T1 sequence: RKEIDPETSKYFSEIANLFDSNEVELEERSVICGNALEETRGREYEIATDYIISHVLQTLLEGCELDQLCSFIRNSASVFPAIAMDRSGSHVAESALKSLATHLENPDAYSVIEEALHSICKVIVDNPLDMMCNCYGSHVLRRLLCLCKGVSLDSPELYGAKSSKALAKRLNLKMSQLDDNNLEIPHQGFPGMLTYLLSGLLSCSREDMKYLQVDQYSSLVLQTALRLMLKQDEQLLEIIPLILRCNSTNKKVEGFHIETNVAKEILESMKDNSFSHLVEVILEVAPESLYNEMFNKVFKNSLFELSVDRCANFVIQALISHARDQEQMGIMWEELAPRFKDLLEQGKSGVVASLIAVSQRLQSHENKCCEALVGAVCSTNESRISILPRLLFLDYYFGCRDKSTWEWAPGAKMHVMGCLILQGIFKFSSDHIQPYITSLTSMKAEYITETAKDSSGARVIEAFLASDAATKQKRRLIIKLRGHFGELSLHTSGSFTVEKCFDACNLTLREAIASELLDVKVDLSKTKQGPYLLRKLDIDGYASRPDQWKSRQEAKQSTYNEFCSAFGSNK

T2: APUM23Delete (Arabidopsis thaliana, UniProt Q9C552 85-655, del235-270)
T2 sequence: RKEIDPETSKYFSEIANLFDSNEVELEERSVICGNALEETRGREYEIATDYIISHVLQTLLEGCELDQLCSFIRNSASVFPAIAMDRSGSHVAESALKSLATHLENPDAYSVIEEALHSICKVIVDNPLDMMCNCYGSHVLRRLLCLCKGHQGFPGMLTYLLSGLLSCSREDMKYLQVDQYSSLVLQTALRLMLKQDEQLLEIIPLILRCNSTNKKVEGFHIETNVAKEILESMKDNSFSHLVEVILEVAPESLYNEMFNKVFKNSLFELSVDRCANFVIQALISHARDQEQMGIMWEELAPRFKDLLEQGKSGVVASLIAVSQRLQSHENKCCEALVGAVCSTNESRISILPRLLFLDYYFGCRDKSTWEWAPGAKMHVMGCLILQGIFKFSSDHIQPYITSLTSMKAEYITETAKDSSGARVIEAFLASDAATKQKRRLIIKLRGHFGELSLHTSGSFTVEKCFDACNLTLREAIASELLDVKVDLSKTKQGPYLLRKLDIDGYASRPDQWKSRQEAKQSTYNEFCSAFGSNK

B1: 11-mer A+3G RNA (ssRNA)
RNA: GGAGUUGACGG
B2: 11-mer WT RNA (18S rRNA 1141-1151) (ssRNA)
RNA: GGAAUUGACGG

Experiments:
[1] = molecular target: T1, APUM23 85-655 (WT); assay: X-ray crystallography
[2] = molecular target: T2, APUM23Delete; assay: X-ray crystallography

Binder | binding result [1] | binding result [2]
B1 | binds | –
B2 | – | binds
